Source: paper PMC4268158 (Nature, 2014)
Where “and” joins values, the source holds several entries; their conditions need not be identical. Equal values may be shown once.

What was measured:
[1] = biological target: the molecule itself; experiment: SEC + other: negative-stain EM
[2] = biological target: the molecule itself; experiment: cryo-EM structure
[3] = biological target: the molecule itself; experiment: SEC + other: negative-stain EM; remark: listed apart in the source
[4] = biological target: T1, CsgE-his (pNH27) (Escherichia coli), P0AE95; experiment: SEC; details: remark: other sources report otherwise
T1 chain: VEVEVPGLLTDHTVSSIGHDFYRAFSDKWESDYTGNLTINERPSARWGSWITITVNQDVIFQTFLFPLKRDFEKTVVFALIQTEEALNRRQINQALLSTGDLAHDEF

[5] = biological target: T1, CsgE-his (pNH27) (Escherichia coli), …; experiment: cryo-EM structure; details: remark: other sources report otherwise
[6] = biological target: T1, CsgE-his (pNH27) (Escherichia coli), …; experiment: cryo-EM class averages; details: remark: other sources report otherwise
[7] = biological target: T1, CsgE-his (pNH27) (Escherichia coli), …; experiment: negative-stain EM; details: remark: other sources report otherwise

B1: CsgGC1S, non-lipidated soluble periplasmic form, C-terminally StrepII-tagged (pPG2) (natural protein, Escherichia coli, UniProt P0AEA2 16-277, looked up)
chain: SLTAPPKEAARPTLMPRAQSYKDLTHLPAPTGKIFVSVYNIQDETGQFKPYPASNFSTAVPQSATAMLVTALKDSRWFIPLERQGLQNLLNERKIIRAAQENGTVAINNRIPLQSLTAANIMVEGSIIGYESNVKSGGVGARYFGIGADTQYQLDQIAVNLRVVNVSTGEILSSVNTSKTILSYEVQAGVFRFIDYQRLLEGEVGYTSNEPVMLCLMSAIETGVIFLINDGIDRGLWDLQNKAERQNDILVKYRHMSVPPES
For B1, the “stoichiometry N” value [1] was 16 and 8.

B2: CsgG, native membrane-extracted, C-terminally StrepII-tagged (pPG1) (natural protein, Escherichia coli, UniProt P0AEA2 16-277, looked up)
chain: CLTAPPKEAARPTLMPRAQSYKDLTHLPAPTGKIFVSVYNIQDETGQFKPYPASNFSTAVPQSATAMLVTALKDSRWFIPLERQGLQNLLNERKIIRAAQENGTVAINNRIPLQSLTAANIMVEGSIIGYESNVKSGGVGARYFGIGADTQYQLDQIAVNLRVVNVSTGEILSSVNTSKTILSYEVQAGVFRFIDYQRLLEGEVGYTSNEPVMLCLMSAIETGVIFLINDGIDRGLWDLQNKAERQNDILVKYRHMSVPPES
modifications: diacylglycerol- and amide-linked acyl chain on the N-terminal Cys (lipid anchor)
B2 was tested, and the “stoichiometry N” value [2] was 9 and the “stoichiometry N” value [3] was 18.

B3: CsgE-his (pNH27), P0AE95 23-129 (natural protein)
chain: VEVEVPGLLTDHTVSSIGHDFYRAFSDKWESDYTGNLTINERPSARWGSWITITVNQDVIFQTFLFPLKRDFEKTVVFALIQTEEALNRRQINQALLSTGDLAHDEF
Work on B3 yielded a stoichiometry N [4] of 9.16, a stoichiometry N [5] of 9 and a stoichiometry N [6] of 9. For the same binder, the stoichiometry N [7] was 9.
